According to patent publication US20250000936A1, “TREATMENT OF GEOGRAPHIC ATROPHY” (Apellis Pharmaceuticals, Inc., priority 2021, published 2025):

What was measured:
[1] = test system: patients with geographic atrophy (GA) secondary to age-related macular degeneration (AMD); assay: OAKS Phase 3 study: safety
Protocol: (§1) All randomized subjects returned every month to the clinical site for assessments and additional pegcetacoplan or sham injections according to their randomization scheme until Month 12. From Month 12 onwards, subjects return to the clinical site based on their randomized treatment schedule (monthly or EOM) and follow the treatment regimen and assessments outlined in the Visit Schedule until Month 24. Safety was assessed throughout the study by a number of evaluations including: monitoring of AEs, preinjection and postinjection monitoring, blood and urine samples collected, physical examination, vital signs, and follow-up phone calls. Blood samples were also be collected for anti-therapeutic antibodies, genotyping, and clinical repository (if the subject consented to this portion).
(§2) The Safety set consisted of all subjects randomized who received at least one injection of pegcetacoplan or sham. Subjects were analyzed according to the actual treatment received. […] This population was used for all safety analyses.

[2] = test system: patients with geographic atrophy (GA) secondary to age-related macular degeneration (AMD); assay: DERBY and OAKS combined: safety; conditions: for CNV type on FA at eAMD study visit: Active leakage with low likelihood of CNV / CNV type on FA at eAMD study visit: Classic / CNV type on FA at eAMD study visit: Classic + occult / CNV type on FA at eAMD study visit: Occult / investigator-reported events of eAMD, double-layer sign (DLS) present in the study eye / investigator-reported events of eAMD, CNV present in the fellow eye / investigator-reported events of eAMD, CNV absent in the fellow eye / investigator-reported events of eAMD, double-layer sign (DLS) absent in the study eye: through month 18; for Investigator-determined new-onset eAMD in fellow eyes: through 18 months; for combined rate of new-onset exudations: month 24
Protocol: as §1, §2

[3] = combined, PEOM (every other month), N=21 events
[4] = combined, PM (monthly), N=26 events
[5] = combined, between months 18 and 24

Poly(oxy-1,2-ethanediyl), α-hydro-ω-hydroxy-, 15,15′-diester with N-acetyl-L-isoleucyl-L-cysteinyl-L-valyl-1-methyl-L-tryptophyl-L-glutaminyl-L-α-aspartyl-L-tryptophylglycyl-L-alanyl-L-histidyl-L-arginyl-L-cysteinyl-L-threonyl-2-[2-(2-aminoethoxy) ethoxy]acetyl-N^6-carboxy-L-lysinamide cyclic (2->12)-(disulfide) [pegcetacoplan]
Serious ocular TEAE Optic ischemic neuropathy, patients ([1]; PM (monthly), 12 months): 1 (0.5%) n (%) | Serious ocular TEAE Papilledema, events M ([1]; PM (monthly), 12 months): 3 | Serious ocular TEAE Papilledema, patients ([1]; PM (monthly), 12 months): 1 (0.5%) n (%) | Serious ocular TEAE Retinal detachment, patients ([1]; PM (monthly), 12 months): 0 n (%) | Serious ocular TEAE Vitritis, patients ([1]; PM (monthly), 12 months): 0 n (%) | Serious ocular TEAEs in the study eye, events M ([1]; PM (monthly), 12 months): 3 | Serious ocular TEAEs in the study eye, patients ([1]; PM (monthly), 12 months): 3 (1.4%) n (%) | Sum of investigator-determined eAMD and reading center cases not reported by investigators ([1]; PM (monthly), 12 months): (6.1%) | Sum of investigator-determined eAMD and reading center cases not reported by investigators ([1]; PM (monthly), 12 months, count): 13 | All TEAEs, Total events, M ([1]; PM (monthly), 18 months): 1037 | All TEAEs, patients ([1]; PM (monthly), 18 months): 185 (86.9%) n (%) | Non-ocular TEAEs, M ([1]; PM (monthly), 18 months): 573 | Non-ocular TEAEs, Patients ([1]; PM (monthly), 18 months): 152 (71.4%) n (%) | Ocular TEAEs in study eye, M ([1]; PM (monthly), 18 months): 325 | Ocular TEAEs in study eye, Patients ([1]; PM (monthly), 18 months): 126 (59.2%) n (%) | Discontinued study prior to Month 12, reason Adverse Event ([1]; PM (monthly), N=213): 3 (1.4%) n (%) | Discontinued study prior to Month 12, reason Death ([1]; PM (monthly), N=213): 7 (3.3%) n (%) | Discontinued study prior to Month 18, reason Adverse event ([1]; PM (monthly), N=213): 6 (2.8%) n (%) | Discontinued study prior to Month 18, reason Death ([1]; PM (monthly), N=213): 12 (5.6%) n (%) | Patients with new onset fellow eye eAMD ([1]; PM (monthly), through 18 months, 168 patients without baseline fellow eye CNV): 8 (4.8%) n (%) | patients with study eye investigator-determined new-onset exudative AMD ([1]; every other month, month 18, 15/212 patients): 7.1% | patients with study eye investigator-determined new-onset exudative AMD ([1]; monthly, month 18, 16/213 patients): 7.5% | tolerability ([2]; both Phase 3 studies, 12 months): well tolerated | events of retinal vasculitis or retinal vein occlusion ([2]; combined, 12 months): No events | intraocular inflammation events ([2]; combined, 12 months, thirteen events): 0.21 % per injection | CNV type on FA at eAMD study visit: Active leakage with low likelihood of CNV [2, 3]: 0 n (%) | CNV type on FA at eAMD study visit: Classic [2, 3]: 1 (4,8%) n (%) | CNV type on FA at eAMD study visit: Classic + occult [2, 3]: 0 n (%) | CNV type on FA at eAMD study visit: Occult [2, 3]: 20 (95.2%) n (%) | Investigator-determined new-onset eAMD in fellow eyes ([2]; combined, PEOM (every other month), 339 patients without baseline fellow eye CNV): 13 (3.8%) n (%) | CNV type on FA at eAMD study visit: Active leakage with low likelihood of CNV [2, 4]: 3 (11.5%) n (%) | CNV type on FA at eAMD study visit: Classic [2, 4]: 1 (3.8%) n (%) | CNV type on FA at eAMD study visit: Classic + occult [2, 4]: 0 n (%) | CNV type on FA at eAMD study visit: Occult [2, 4]: 22 (84.6%) n (%) | Investigator-determined new-onset eAMD in fellow eyes ([2]; combined, PM (monthly), 335 patients without baseline fellow eye CNV): 12 (3.6%) n (%) | cases of endophthalmitis [2, 5]: No cases | serious adverse events of ischemic optic neuropathy [2, 5]: no serious adverse events | pooled rate of new-onset exudations (investigator-determined eAMD), patients ([2]; combined, every other month, 12 months): 4.1% | rate of new-onset exudations ([2]; combined, every other month, month 18, 26/420 patients): 6.2% | combined rate of new-onset exudations ([2]; combined, every other month): 6.7% | investigator-reported events of eAMD, double-layer sign (DLS) present in the study eye ([2]; combined, every other month, 6/73 patients): 8.2% | investigator-reported events of eAMD, CNV present in the fellow eye ([2]; combined, every other month, 8/81 patients): 9.9% | investigator-reported events of eAMD, CNV absent in the fellow eye ([2]; combined, every other month, 18/338 patients): 5.3% | investigator-reported events of eAMD, double-layer sign (DLS) absent in the study eye ([2]; combined, every other month, 20/345 patients): 5.8% | events of retinal vasculitis or retinal vein occlusion ([2]; combined, month 18): No events | rate of intraocular inflammation ([2]; combined, month 18): 0.23 % per injection | pooled rate of new-onset exudations (investigator-determined eAMD), patients ([2]; combined, monthly, 12 months): 6.0% | rate of new-onset exudations ([2]; combined, monthly, month 18, 40/419 patients): 9.5% | combined rate of new-onset exudations ([2]; combined, monthly): 11.9% | investigator-reported events of eAMD, double-layer sign (DLS) present in the study eye ([2]; combined, monthly, 8/79 patients): 10.1% | investigator-reported events of eAMD, CNV present in the fellow eye ([2]; combined, monthly, 8/84 patients): 9.5% | investigator-reported events of eAMD, CNV absent in the fellow eye ([2]; combined, monthly, 32/335 patients): 9.6% | investigator-reported events of eAMD, double-layer sign (DLS) absent in the study eye ([2]; combined, monthly, 32/336 patients): 9.5% | events of occlusive vasculitis or retinitis ([2]; combined, over 24 months): No events | rate of intraocular inflammation ([2]; combined, over 24 months): 0.24 % per injection
